Laboratory results as given in patent US20160200782A1 (MOERAE MATRIX, published 2016).

T1: GCK(h) (human, UniProt Q12851 1-820, limits assumed)
T1 sequence (looked up): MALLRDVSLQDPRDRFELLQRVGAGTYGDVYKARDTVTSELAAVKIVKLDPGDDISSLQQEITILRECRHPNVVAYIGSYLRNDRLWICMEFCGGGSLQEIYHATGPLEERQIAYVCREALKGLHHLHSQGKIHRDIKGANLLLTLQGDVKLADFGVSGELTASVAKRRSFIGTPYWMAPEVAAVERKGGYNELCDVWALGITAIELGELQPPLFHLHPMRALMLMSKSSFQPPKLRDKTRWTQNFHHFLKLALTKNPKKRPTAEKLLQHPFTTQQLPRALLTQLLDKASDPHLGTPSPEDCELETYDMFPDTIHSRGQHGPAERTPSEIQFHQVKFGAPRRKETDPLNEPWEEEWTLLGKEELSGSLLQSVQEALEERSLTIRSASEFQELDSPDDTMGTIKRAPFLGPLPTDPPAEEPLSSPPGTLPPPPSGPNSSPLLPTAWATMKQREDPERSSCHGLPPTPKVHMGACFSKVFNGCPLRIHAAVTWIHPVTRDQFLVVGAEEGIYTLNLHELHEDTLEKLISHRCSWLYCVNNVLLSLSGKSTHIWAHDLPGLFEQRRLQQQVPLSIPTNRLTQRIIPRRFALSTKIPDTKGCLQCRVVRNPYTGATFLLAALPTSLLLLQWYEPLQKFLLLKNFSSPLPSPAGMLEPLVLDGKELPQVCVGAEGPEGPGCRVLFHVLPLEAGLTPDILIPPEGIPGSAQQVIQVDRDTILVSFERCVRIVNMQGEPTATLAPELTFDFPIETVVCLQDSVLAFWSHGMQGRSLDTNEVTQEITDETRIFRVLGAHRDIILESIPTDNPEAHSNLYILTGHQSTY

T2: NEK2(h) (human, UniProt P51955 1-445, limits assumed)
T2 sequence (looked up): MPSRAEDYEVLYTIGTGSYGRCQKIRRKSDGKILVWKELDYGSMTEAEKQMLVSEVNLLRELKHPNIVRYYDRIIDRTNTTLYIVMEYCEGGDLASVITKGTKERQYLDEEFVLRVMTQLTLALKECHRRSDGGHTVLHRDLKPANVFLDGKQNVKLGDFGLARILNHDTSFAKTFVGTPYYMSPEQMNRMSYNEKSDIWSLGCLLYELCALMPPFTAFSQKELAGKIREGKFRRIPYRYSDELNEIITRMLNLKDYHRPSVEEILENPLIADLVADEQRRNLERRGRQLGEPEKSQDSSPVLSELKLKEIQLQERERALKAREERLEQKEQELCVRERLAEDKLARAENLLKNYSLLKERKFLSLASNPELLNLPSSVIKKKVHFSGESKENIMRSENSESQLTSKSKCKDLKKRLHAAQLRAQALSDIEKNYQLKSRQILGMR

T3: NEK3(h) (human, UniProt P51956 1-506, limits assumed)
T3 sequence (looked up): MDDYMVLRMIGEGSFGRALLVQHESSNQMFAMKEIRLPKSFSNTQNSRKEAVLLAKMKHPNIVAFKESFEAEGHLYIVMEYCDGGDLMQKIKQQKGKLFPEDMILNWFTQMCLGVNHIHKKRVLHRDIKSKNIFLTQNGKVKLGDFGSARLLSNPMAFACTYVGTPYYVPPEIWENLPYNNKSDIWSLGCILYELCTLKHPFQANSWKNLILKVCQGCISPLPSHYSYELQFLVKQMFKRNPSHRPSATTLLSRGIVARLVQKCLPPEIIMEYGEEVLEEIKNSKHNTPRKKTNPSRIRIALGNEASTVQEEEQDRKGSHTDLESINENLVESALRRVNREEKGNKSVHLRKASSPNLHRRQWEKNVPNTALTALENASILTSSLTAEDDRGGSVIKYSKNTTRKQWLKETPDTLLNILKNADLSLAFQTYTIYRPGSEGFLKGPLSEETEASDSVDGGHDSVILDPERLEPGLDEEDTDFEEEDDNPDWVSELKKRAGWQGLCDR

T4: ULK2(h) (human, UniProt Q8IYT8 1-478, limits assumed)
T4 sequence (looked up): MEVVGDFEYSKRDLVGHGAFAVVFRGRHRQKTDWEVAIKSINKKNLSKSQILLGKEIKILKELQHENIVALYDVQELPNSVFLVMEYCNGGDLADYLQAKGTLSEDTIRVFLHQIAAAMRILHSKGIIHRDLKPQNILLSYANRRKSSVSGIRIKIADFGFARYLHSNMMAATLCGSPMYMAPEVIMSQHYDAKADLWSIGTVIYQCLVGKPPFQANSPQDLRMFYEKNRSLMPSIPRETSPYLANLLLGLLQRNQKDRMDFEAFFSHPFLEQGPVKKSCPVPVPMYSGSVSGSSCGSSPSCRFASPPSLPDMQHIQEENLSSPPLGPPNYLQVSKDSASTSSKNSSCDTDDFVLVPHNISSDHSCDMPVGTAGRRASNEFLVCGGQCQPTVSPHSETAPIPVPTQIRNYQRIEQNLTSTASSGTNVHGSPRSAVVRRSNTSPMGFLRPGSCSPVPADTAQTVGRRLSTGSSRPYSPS


Tests used:
Experiment in all cases: cell-based or functional assay
[1] = biological target: T1, GCK(h)
[2] = biological target: GRK6(h) (human, UniProt P43250 1-576, limits assumed)
[3] = biological target: MELK(h) (human, UniProt Q14680 1-340, limits assumed)
[4] = biological target: Met(Y1248H)(h) (human, UniProt P08581-2 974-1408, limits assumed)
[5] = biological target: T2, NEK2(h)
[6] = biological target: T3, NEK3(h)
[7] = biological target: PKBα(h) (human, UniProt P31749 1-480, limits assumed)
[8] = biological target: PKCγ(h) (human, UniProt P05129 1-697)
[9] = biological target: SRPK1(h) (human, UniProt Q96SB4 1-655, limits assumed)
[10] = biological target: Tie2(h) (human, UniProt Q02763 771-1124, limits assumed)
[11] = biological target: T4, ULK2(h)
[12] = biological target: Ab1(H396P)(h) (human, UniProt P00519 27-1130, limits assumed)
[13] = biological target: FAK(h) (human, UniProt Q05397 1-1052, limits assumed)
Note: test concentration or dose not given here.

Chain of SRPK1(h) (Q96SB4 whole entry): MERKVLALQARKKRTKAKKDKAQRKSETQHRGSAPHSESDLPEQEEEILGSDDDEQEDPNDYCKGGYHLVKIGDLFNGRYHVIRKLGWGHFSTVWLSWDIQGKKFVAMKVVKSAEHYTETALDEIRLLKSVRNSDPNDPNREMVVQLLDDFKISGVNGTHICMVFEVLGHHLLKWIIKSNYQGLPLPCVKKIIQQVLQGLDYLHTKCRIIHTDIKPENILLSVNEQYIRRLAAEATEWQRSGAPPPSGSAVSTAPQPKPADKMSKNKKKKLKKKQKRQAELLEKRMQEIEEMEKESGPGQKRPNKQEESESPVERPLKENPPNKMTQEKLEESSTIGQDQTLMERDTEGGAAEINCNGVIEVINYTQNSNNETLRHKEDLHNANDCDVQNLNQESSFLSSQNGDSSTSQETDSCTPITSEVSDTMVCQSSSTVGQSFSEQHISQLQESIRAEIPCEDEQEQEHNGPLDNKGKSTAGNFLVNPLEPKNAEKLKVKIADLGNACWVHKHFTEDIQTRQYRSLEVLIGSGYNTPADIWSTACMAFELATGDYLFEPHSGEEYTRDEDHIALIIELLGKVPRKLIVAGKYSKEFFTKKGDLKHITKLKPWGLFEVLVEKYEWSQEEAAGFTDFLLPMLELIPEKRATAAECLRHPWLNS
Chain of GRK6(h) (P43250 whole entry): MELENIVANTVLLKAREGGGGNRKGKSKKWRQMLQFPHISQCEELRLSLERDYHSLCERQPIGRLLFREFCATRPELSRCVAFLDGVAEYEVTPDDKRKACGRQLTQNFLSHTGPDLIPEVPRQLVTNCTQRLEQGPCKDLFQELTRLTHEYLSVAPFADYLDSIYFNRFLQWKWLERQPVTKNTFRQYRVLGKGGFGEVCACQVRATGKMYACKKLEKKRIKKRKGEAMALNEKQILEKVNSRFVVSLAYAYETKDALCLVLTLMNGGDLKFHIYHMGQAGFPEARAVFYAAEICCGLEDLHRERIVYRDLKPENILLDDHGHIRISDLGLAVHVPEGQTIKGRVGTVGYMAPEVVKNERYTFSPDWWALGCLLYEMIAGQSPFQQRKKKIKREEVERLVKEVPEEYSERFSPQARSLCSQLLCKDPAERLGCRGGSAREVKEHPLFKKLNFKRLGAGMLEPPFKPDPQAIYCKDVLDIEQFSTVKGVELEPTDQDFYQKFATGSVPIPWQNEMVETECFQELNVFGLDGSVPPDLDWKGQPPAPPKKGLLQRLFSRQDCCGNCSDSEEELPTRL
Chain of MELK(h) (Q14680 1-340 limits assumed): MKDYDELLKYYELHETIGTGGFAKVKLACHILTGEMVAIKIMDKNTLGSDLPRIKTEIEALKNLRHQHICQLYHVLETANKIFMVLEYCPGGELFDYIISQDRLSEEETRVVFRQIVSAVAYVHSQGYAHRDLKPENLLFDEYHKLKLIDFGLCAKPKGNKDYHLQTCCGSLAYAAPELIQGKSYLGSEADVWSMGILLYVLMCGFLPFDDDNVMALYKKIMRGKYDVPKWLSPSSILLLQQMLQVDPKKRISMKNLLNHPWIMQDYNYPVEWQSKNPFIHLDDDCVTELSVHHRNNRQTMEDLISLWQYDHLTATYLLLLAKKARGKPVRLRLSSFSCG
Chain of Tie2(h) (Q02763 771-1124 limits assumed): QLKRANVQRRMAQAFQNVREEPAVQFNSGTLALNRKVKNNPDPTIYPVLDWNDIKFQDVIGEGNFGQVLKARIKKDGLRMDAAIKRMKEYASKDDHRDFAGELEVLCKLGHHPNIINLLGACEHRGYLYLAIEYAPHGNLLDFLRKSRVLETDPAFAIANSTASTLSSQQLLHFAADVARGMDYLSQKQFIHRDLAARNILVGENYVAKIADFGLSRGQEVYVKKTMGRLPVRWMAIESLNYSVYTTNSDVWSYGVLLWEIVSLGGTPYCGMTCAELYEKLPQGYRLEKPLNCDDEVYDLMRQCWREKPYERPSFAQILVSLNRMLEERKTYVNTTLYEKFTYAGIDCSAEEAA
Chain of PKBα(h) (P31749 whole entry): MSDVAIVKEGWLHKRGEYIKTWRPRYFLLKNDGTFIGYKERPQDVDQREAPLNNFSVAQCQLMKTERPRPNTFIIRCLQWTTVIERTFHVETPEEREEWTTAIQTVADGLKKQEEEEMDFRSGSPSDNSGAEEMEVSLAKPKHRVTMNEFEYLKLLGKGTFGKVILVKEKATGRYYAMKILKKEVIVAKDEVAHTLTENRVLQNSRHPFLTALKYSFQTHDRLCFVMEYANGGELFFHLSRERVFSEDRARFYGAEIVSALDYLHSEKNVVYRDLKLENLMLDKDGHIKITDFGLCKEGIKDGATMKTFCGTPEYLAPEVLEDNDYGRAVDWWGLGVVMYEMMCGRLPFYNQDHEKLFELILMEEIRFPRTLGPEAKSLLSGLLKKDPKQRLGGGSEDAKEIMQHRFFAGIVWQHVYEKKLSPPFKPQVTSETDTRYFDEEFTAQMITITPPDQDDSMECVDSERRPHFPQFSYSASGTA
Chain of FAK(h) (Q05397 whole entry): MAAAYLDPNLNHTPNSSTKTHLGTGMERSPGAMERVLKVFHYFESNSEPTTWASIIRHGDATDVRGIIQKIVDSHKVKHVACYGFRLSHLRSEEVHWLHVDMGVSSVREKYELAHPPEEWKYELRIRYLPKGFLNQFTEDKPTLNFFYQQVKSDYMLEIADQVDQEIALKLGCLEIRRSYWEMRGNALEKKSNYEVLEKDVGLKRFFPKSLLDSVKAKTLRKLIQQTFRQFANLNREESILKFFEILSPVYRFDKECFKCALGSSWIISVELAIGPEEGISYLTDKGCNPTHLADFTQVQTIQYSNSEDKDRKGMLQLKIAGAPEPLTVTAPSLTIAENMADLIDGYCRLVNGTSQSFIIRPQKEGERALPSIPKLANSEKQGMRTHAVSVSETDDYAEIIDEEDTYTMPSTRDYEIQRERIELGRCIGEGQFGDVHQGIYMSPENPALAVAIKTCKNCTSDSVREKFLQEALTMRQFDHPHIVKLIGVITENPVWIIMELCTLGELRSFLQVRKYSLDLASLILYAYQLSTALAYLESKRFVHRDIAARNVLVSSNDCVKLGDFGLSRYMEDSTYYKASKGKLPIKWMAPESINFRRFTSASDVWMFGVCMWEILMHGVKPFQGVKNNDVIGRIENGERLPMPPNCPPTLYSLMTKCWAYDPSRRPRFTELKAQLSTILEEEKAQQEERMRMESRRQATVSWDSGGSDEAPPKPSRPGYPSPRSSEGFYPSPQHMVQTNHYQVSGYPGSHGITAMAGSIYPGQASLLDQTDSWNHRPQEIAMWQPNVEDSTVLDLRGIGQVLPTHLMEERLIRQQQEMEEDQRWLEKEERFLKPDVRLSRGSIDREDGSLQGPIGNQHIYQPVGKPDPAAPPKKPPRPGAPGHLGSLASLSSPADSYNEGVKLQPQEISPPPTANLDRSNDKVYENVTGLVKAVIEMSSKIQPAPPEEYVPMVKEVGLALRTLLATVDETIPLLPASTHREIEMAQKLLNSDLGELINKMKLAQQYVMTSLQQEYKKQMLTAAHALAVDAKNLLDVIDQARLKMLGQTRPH

% activity [1] [%] | % activity [2] [%] | % activity [3] [%] | % activity [4] [%] | % activity [5] [%] | % activity [6] [%] | % activity [7] [%] | % activity [8] [%] | % activity [9] [%] | % activity [10] [%] | % activity [11] [%] | % activity [12] [%] | % activity [13] [%] | Binder
70 | 147 | 16 | 117 | 78 | 92 | 57 | 89 | 90 | 26 | 122 | 101 | 111 | FAKLAARLYRKALARQLGVAA [MMI-0300]
66 | 141 | 17 | 63 | 61 | 85 | 67 | 79 | 96 | 21 | 131 | 105 | 96 | KAFAKLAARLYRKALARQLGVAA [MMI-0400]
